Consider one protein from patent publication US6713606.

The target in this data set is T1, purified human Lysn-Plasminogen, P00747.
T1 chain: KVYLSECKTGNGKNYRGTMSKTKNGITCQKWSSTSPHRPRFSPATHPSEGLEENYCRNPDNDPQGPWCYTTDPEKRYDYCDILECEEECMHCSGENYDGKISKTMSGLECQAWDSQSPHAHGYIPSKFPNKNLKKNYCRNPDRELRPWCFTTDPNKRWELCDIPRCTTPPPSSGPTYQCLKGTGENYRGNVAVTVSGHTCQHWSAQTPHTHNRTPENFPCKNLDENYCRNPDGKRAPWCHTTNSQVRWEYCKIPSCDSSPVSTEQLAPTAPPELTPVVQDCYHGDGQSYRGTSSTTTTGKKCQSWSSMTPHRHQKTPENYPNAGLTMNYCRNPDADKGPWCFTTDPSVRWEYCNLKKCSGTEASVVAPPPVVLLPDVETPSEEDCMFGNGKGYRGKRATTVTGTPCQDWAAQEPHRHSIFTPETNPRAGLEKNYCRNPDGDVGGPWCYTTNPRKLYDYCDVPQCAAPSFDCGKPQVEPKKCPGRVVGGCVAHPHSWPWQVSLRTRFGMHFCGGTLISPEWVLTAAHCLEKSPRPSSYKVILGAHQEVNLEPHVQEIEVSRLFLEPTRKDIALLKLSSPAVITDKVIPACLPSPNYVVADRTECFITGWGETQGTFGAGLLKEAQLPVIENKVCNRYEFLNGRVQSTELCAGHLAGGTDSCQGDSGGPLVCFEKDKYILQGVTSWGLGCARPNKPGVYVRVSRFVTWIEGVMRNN

B1: thiolated streptokinase (protein)
chain: IAGPEWLLDRPSVNNSQLVVSVAGTVEGTNQDISLKFFEIDLTSRPAHGGKTEQGLSPKSKPFATDSGAMSHKLEKADLLKAIQEQLIANVHSNDDYFEVIDFASDATITDRNGKVYFADKDGSVTLPTQPVQEFLLSGHVRVRPYKEKPIQNQAKSVDVEYTVQFTPLNPDDDFRPGLKDTKLLKTLAIGDTITSQELLAQAQSILNKNHPGYTIYERDSSIVTHDNDIFRTILPMDQEFTYRVKNREQAYRINKKSGLNEEINNTDLISEKYYVLKKGEKPYDPFDRSHLKLFTIKYVDVDTNELLKSEQLLTASERNLDFRDLYDPRDKAKLLYNNLDAFGIMDYTLTGKVEDNHDDTNRIITVYMGKRPEGENASYHLAYDKDRYTEEEREVYSYLRYTGTPIPDNPNDK
As to B1, the “plasmin generation in the plasminogen activation assay (S-2251 substrate units)” value is listed as “thiolated SK (1 nM), generated plasmin at a nearly linear of 4225 SU/ml”.
